# Assay results published in patent US20190382504A1 (EUREKA THERAPEUTICS, published 2019).
# B1: ESO157 BsAb #66 (anti-ESO157/HLA-A*02:01 scFv x anti-human CD3epsilon scFv, single chain) (bispecific antibody)
# chain: QSVLTQPPSVSGAPGQRVTISCTGSSSNIGAGYDVHWYQQLPGTAPKLLIYGNSNRPSGVPDRFSGSKSGTSASLAITGLQAEDEADYYCQSYDSSLSGSWVFGGGTKLTVLGSRGGGGSGGGGSGGGGSLEMAEVQLVESGAEVKRPGASVKVSCKASGYTFTSYGISWVRQAPGQGLEWMGRFIPNLNKGNSAHKFEGRVSFTADKFTNTAYMELRGLKSDDTAVYYCARGDYGSDQWGQGTLVTVSS
# B2: ESO157 BsAb #35 (anti-ESO157/HLA-A*02:01 scFv x anti-human CD3epsilon scFv, single chain) (bispecific antibody, not shown: small tags and cut ends)
# scFv: QSVVTQPPSVSAAPGQKVTISCSGSSSNIGNNYVSWYQQLPGTAPKLLIYDNNKRPSGIPDRFSGSKSGTSATLGITGLQTGDEADYYCGTWDSSLSAWVFGGGTKLTVLGSRGGGGSGGGGSGGGGSLEMAQVQLVQSGAEVKKPGSSVKVSCKASGDTFSSYSISWVRQAPGQGLEWMGRIIPILGIANYAQKYQGRVTLSADKSTSTSYMELNSLRSEDTAVYYCARDWSYSIDYWGQGTLVTVSS
# notes: also called NY-ESO-1 BsAb #35
# B3: ESO157 BsAb #52 (anti-ESO157/HLA-A*02:01 scFv x anti-human CD3epsilon scFv, single chain) (bispecific antibody)
# chain: QSVLTQPPSVSGAPGQRVTISCTGSSSNIGAGYDVHWYQQLPGTAPKLLIYGDTNRPSGVPDRISGSKSGTSASLAITGLQAEDEADYYCQSYDSNLYTYVFGTGTKVTVLGSRGGGGSGGGGSGGGGSLEMAQVQLVQSGAEVKKPGASVKVSCKASGYTFTSYGISWVRQAPGQGLEWMGWISAYNGNTNYAQKLQGRVTMTTDTSTSTAYMELRSLRSDDTAVYYCARYSGYYAGDSWGQGTLVTVSS
# B4: phage clone #116, anti-ESO157/HLA-A*02:01 scFv displayed on phage (scFv, V domains shown)
# VH: QVQLVQSGPEVKKPGASMKVSCKASGYTFTKYGISWVRQAPGQGLEWMGWISADSGKTSYAQNLQGRVSLTIDTSTATAYMELRSLRSDDTAVYYCARDDDSWGQGTLVTVSS
# VL: QSVLTQPPSVSAAPGQKVTISCSGSSSNIGNNYVSWYQQLPGTAPKLLIYDNNKRPSGIPDRFSGSKSGTSATLGITGLQTGDEADYYCGTWDSSLSAEVFGTGTKVTVLG
# B5: ESO157 BsAb #148 (anti-ESO157/HLA-A*02:01 scFv x anti-human CD3epsilon scFv, single chain) (bispecific antibody, V domains shown, not shown: small tags and cut ends)
# VH: EVQLVQSGAEVKKPGASVKVSCKASGGTFSSYAISWVRQAPGQGLEWMGGIIPIFGTANYAQKFQGRVTITADKSTSTAYMELSSLRSEDTAVYYCARSYWSWTPYDPWGQGTLVTVSS
# VL: LPVLTQPPSVSVAPGKTARITCGGNNIGSKSVHWYQQKPGQAPVLVIYYDSDRPSGIPERFSGSNSGNTATLTISRVEAGDEADYYCQVWDSSSDHYVFGTGTKVTVL
# B6: ESO157 BsAb #76 (anti-ESO157/HLA-A*02:01 scFv x anti-human CD3epsilon scFv, single chain) (bispecific antibody)
# chain: QSVVTQPPSLSGAPGQRVTISCNGSGSNIGAGYDVHWYQQLPGTAPKLLIYGNSNRPSGVPDRFSGSKSGTSASLAITGLQAEDEADYYCQSYDSSLSGWGIFGGGTKLTVLGSRGGGGSGGGGSGGGGSLEMAEVQLVQSGAEVKKPGSSVKVSCKASGGTFSSYAISWVRQAPGQGLEWMGGIIPIFGTANYAQKFQGRVTITADESTSTAYMELSSLRSEDTAVYYCARYDSYVYDEWGQGTLVTVSS
# What was measured:
# [1] = target: biotinylated recombinant ESO157/HLA-A*02:11 complex (human); experiment: BLI (Octet QK), biotinylated pMHC on streptavidin sensor, BsAb 10 ug/mL
# [2] = target: biotinylated recombinant ESO157/HLA-A*02:06 complex (human); experiment: as above
# [3] = target: biotinylated recombinant ESO157/HLA-A*02:03 complex (human); experiment: as above
# [4] = target: biotinylated recombinant ESO157/HLA-A*02:05 complex (human); experiment: as above
# [5] = target: biotinylated recombinant ESO157/HLA-A*02:02 complex (human); experiment: as above
# [6] = target: biotinylated recombinant ESO157/HLA-A*02:02 complex (human); experiment: as above; remark: listed apart in the source
# [7] = target: T1, biotinylated recombinant ESO157 wild type peptide/HLA-A*02:01 complex monomer (human); experiment: SPR (Biacore X100), biotinylated pMHC on streptavidin chip, BsAb as analyte
# T1 construct: also called recombinant ESO157/HLA-A*02:01 complex; biotin-labelled ESO157 wild type peptide/HLA-A*02:01 complex
# [8] = target: T2, HLA-A*02:01 on T2 cells without peptide loading (human); experiment: FACS, peptide-pulsed T2 cells
# T2 construct: TAP-deficient T2 cells, no peptide added; also called No peptide; T2 cells with no peptide loaded
# [9] = target: ESO157 A6 peptide (…)/HLA-A*02:01 complex on T2 cells (human); experiment: FACS, peptide-pulsed T2 cells
# [10] = target: ESO157 A3 peptide (…)/HLA-A*02:01 complex on T2 cells (human); experiment: FACS, peptide-pulsed T2 cells
# [11] = target: ESO157 A4 peptide (…)/HLA-A*02:01 complex on T2 cells (human); experiment: FACS, peptide-pulsed T2 cells
# [12] = target: ESO157 A7 peptide (…)/HLA-A*02:01 complex on T2 cells (human); experiment: FACS, peptide-pulsed T2 cells
# [13] = target: ESO157 A8 peptide (…)/HLA-A*02:01 complex on T2 cells (human); experiment: FACS, peptide-pulsed T2 cells
# [14] = target: T3, ESO157 wild type peptide (…)/HLA-A*02:01 complex on cells (human); experiment: FACS, peptide-pulsed T2 cells
# T3 construct: also called ESO157-loaded T2 cells
# [15] = target: ESO157 A1 peptide (…)/HLA-A*02:01 complex on T2 cells (human); experiment: FACS, peptide-pulsed T2 cells
# [16] = target: ESO157 A5 peptide (…)/HLA-A*02:01 complex on T2 cells (human); experiment: FACS, peptide-pulsed T2 cells
# Bio-C9V mutant = target: T4, Bio-C9V mutant; experiment: phage ELISA: streptavidin plate coated with biotinylated peptide/HLA-A*02:01 monomer, phage detected with HRP-conjugated anti-M13 antibody, absorbance at 450 nm
# T4 construct: also called biotinylated ESO157 C9V/HLA-A*02:01 complex monomer
# [17] = target: biotinylated recombinant ESO157/HLA-A*02:05 complex (human); experiment: BLI (Octet QK), biotinylated pMHC on streptavidin sensor, BsAb 10 ug/mL; remark: listed apart in the source
binder,measurement,setting,value
B1,Kd,[1],48 nM
same,Kd,[2],58 nM
same,Kd,[3],47 nM
same,Kd,[4],33 nM
same,Kd,[5],25 nM
B2,Kd,[6],22 nM
same,Kd,[2],78 nM
same,Kd,[3],50 nM
same,Kd,[7],14.1 nM
same,koff,[7],0.00128 s⁻¹
same,kon,[7],90900 M⁻¹ s⁻¹
B3,Kd,[2],140 nM
same,Kd,[3],82 nM
same,Kd,[4],26 nM
same,Kd,[5],63 nM
B4,MFI,[8],502
same,MFI,[9],2640
same,MFI,[10],16500
same,MFI,[11],1150
same,MFI,[12],14400
same,MFI,[13],3400
same,MFI,[14],11300
same,MFI,[15],19600
same,MFI,[16],1340
same,binding result,Bio-C9V mutant,binds
B5,Kd,[6],19 nM
same,Kd,[2],224 nM
same,Kd,[3],85 nM
same,Kd,[17],18 nM
same,Kd,[7],6 nM
same,koff,[7],0.000902 s⁻¹
same,kon,[7],151000 M⁻¹ s⁻¹
B6,Kd,[1],97 nM
same,Kd,[2],126 nM
same,Kd,[3],47 nM
same,Kd,[4],40 nM
same,Kd,[5],34 nM
